Source: article PMC9482650, “Quantitative fragmentomics allow affinity mapping of interactomes” (Nature Communications, 2022)

Molecular target: DLG4_1, P78352
Assay: holdup assay
Set-up: key: below the threshold = too weak to quantify, mostly under pKd 3.1 to 4
Conditions: plain residues with an end cap or a label only (N-terminal biotin on a linker: ado-ado)

Chain of DLG4_1, P78352 (P78352 62-152): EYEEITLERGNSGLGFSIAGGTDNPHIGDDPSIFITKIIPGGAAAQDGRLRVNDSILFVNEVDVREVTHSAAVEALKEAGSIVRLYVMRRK

Row | Binder | pKd
1 | ATKDKKITTV [EXOC4, Q96A65] | 5.25
2 | FHSIKQSTAV [CRHR1, P34998] | 4.56

Molecular target: T1, HTRA3, P83110
T1 sequence (P83110 354-453, limits assumed, looked up): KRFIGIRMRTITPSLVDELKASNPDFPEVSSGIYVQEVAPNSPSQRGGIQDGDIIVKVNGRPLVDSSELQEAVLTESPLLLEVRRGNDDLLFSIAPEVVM
Assay: holdup assay
Set-up: key: below the threshold = too weak to quantify, mostly under pKd 3.1 to 4
Conditions: plain residues with an end cap or a label only (N-terminal biotin on a linker: ado-ado)

Row | Binder | pKd
3 | ATKDKKITTV [EXOC4, Q96A65] | below the threshold
4 | FHSIKQSTAV [CRHR1, P34998] | below the threshold

Molecular target: PDLIM1, O00151
Sequence (O00151 1-87): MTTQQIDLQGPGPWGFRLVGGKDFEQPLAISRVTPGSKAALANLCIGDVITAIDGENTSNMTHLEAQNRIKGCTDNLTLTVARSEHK
Assay: holdup assay
Set-up: key: below the threshold = too weak to quantify, mostly under pKd 3.1 to 4
Conditions: plain residues with an end cap or a label only (N-terminal biotin on a linker: ado-ado)

Row | Binder | pKd
5 | ATKDKKITTV [EXOC4, Q96A65] | 3.49
6 | FHSIKQSTAV [CRHR1, P34998] | below the threshold

Molecular target: SCRIB_1, Q14160
Sequence (Q14160 718-814): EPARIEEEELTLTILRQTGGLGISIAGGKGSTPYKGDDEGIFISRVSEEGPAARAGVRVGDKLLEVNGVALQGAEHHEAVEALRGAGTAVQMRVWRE
Assay: holdup assay
Set-up: key: below the threshold = too weak to quantify, mostly under pKd 3.1 to 4
Conditions: plain residues with an end cap or a label only (N-terminal biotin on a linker: ado-ado)

Row | Binder | pKd
7 | ATKDKKITTV [EXOC4, Q96A65] | 3.85
8 | FHSIKQSTAV [CRHR1, P34998] | 4.01

Molecular target: T2, MPP7, Q5T2T1
T2 sequence (Q5T2T1 134-230, limits assumed, looked up): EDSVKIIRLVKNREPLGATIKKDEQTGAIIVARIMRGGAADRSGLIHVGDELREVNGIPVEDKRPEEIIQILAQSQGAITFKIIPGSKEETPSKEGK
Assay: holdup assay
Set-up: key: below the threshold = too weak to quantify, mostly under pKd 3.1 to 4
Conditions: plain residues with an end cap or a label only (N-terminal biotin on a linker: ado-ado)

Row | Binder | pKd
9 | ATKDKKITTV [EXOC4, Q96A65] | below the threshold
10 | FHSIKQSTAV [CRHR1, P34998] | below the threshold

Molecular target: T3, DFNB31_2, Q9P202
T3 sequence (Q9P202 274-371, limits assumed, looked up): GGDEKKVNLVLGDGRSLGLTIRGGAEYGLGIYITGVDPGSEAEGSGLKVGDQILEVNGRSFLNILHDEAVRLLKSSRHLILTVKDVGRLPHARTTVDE
Assay: holdup assay
Set-up: key: below the threshold = too weak to quantify, mostly under pKd 3.1 to 4
Conditions: plain residues with an end cap or a label only (N-terminal biotin on a linker: ado-ado)

Row | Binder | pKd
11 | ATKDKKITTV [EXOC4, Q96A65] | below the threshold
12 | FHSIKQSTAV [CRHR1, P34998] | below the threshold

Molecular target: T4, MPDZ_10, O75970
T4 sequence (O75970 1624-1722, limits assumed, looked up): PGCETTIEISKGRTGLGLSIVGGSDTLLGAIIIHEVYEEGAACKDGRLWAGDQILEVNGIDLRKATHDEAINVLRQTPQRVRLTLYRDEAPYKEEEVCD
Assay: holdup assay
Set-up: key: below the threshold = too weak to quantify, mostly under pKd 3.1 to 4
Conditions: plain residues with an end cap or a label only (N-terminal biotin on a linker: ado-ado)

Row | Binder | pKd
13 | ATKDKKITTV [EXOC4, Q96A65] | 3.95
14 | FHSIKQSTAV [CRHR1, P34998] | below the threshold

Molecular target: SCRIB_3, Q14160
Sequence (Q14160 999-1103): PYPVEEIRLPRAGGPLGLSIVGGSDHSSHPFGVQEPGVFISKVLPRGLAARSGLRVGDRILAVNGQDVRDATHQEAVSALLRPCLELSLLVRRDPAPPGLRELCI
Assay: holdup assay
Set-up: key: below the threshold = too weak to quantify, mostly under pKd 3.1 to 4
Conditions: plain residues with an end cap or a label only (N-terminal biotin on a linker: ado-ado)

Row | Binder | pKd
15 | ATKDKKITTV [EXOC4, Q96A65] | 3.84
16 | FHSIKQSTAV [CRHR1, P34998] | 4.43

Molecular target: DLG2_3, Q15700
Assay: holdup assay
Set-up: key: below the threshold = too weak to quantify, mostly under pKd 3.1 to 4
Conditions: plain residues with an end cap or a label only (N-terminal biotin on a linker: ado-ado)

Row | Binder | pKd
17 | ATKDKKITTV [EXOC4, Q96A65] | 4.58
18 | FHSIKQSTAV [CRHR1, P34998] | 4.54

Molecular target: T5, PDZRN3_1, Q9UPQ7
T5 sequence (Q9UPQ7 244-349, limits assumed, looked up): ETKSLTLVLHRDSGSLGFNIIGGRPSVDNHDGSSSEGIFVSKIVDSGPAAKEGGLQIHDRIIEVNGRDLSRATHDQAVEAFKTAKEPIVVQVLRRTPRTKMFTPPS
Assay: holdup assay
Set-up: key: below the threshold = too weak to quantify, mostly under pKd 3.1 to 4
Conditions: plain residues with an end cap or a label only (N-terminal biotin on a linker: ado-ado)

Row | Binder | pKd
19 | ATKDKKITTV [EXOC4, Q96A65] | 3.52
20 | FHSIKQSTAV [CRHR1, P34998] | 4.17

Molecular target: T6, RHPN1, Q8TCX5
T6 sequence (Q8TCX5 508-602, limits assumed, looked up): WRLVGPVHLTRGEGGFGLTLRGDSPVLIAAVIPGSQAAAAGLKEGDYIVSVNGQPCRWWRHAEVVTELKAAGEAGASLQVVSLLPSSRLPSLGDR
Assay: holdup assay
Set-up: key: below the threshold = too weak to quantify, mostly under pKd 3.1 to 4
Conditions: plain residues with an end cap or a label only (N-terminal biotin on a linker: ado-ado)

Row | Binder | pKd
21 | ATKDKKITTV [EXOC4, Q96A65] | 4.08
22 | FHSIKQSTAV [CRHR1, P34998] | 3.79

Molecular target: T7, ARHGAP21, Q5T5U3
T7 sequence (Q5T5U3 45-169, limits assumed, looked up): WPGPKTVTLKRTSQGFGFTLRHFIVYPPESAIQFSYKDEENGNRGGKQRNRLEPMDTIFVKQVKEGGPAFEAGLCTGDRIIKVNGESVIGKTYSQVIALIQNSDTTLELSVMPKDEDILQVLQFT
Assay: holdup assay
Set-up: key: below the threshold = too weak to quantify, mostly under pKd 3.1 to 4
Conditions: plain residues with an end cap or a label only (N-terminal biotin on a linker: ado-ado)

Row | Binder | pKd
23 | ATKDKKITTV [EXOC4, Q96A65] | 4.09
24 | FHSIKQSTAV [CRHR1, P34998] | below the threshold

Molecular target: T8, FRMPD1, Q5SYB0
T8 sequence (Q5SYB0 52-145, limits assumed, looked up): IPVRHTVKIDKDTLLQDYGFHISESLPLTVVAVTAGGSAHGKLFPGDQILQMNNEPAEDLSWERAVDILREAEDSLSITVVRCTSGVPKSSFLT
Assay: holdup assay
Set-up: key: below the threshold = too weak to quantify, mostly under pKd 3.1 to 4
Conditions: plain residues with an end cap or a label only (N-terminal biotin on a linker: ado-ado)

Row | Binder | pKd
25 | ATKDKKITTV [EXOC4, Q96A65] | below the threshold
26 | FHSIKQSTAV [CRHR1, P34998] | below the threshold

Molecular target: IL16_1, Q14005
Sequence (Q14005 210-306): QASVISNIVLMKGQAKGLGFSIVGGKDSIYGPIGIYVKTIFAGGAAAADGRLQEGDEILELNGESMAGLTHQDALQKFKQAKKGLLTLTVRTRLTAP
Assay: holdup assay
Set-up: key: below the threshold = too weak to quantify, mostly under pKd 3.1 to 4
Conditions: plain residues with an end cap or a label only (N-terminal biotin on a linker: ado-ado)

Row | Binder | pKd
27 | ATKDKKITTV [EXOC4, Q96A65] | below the threshold
28 | FHSIKQSTAV [CRHR1, P34998] | below the threshold

Molecular target: GORASP2, Q9H8Y8
Assay: holdup assay
Set-up: key: below the threshold = too weak to quantify, mostly under pKd 3.1 to 4
Conditions: plain residues with an end cap or a label only (N-terminal biotin on a linker: ado-ado)

Row | Binder | pKd
29 | ATKDKKITTV [EXOC4, Q96A65] | 4.64
30 | FHSIKQSTAV [CRHR1, P34998] | below the threshold

Molecular target: Inadl_4, Q8NI35
Sequence (Q8NI35 547-651): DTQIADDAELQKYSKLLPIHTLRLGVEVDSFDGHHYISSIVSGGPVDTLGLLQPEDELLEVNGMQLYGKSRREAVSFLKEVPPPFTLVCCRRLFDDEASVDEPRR
Assay: holdup assay
Set-up: key: below the threshold = too weak to quantify, mostly under pKd 3.1 to 4
Conditions: plain residues with an end cap or a label only (N-terminal biotin on a linker: ado-ado)

Row | Binder | pKd
31 | ATKDKKITTV [EXOC4, Q96A65] | below the threshold
32 | FHSIKQSTAV [CRHR1, P34998] | below the threshold

Molecular target: Inadl_3, Q8NI35
Sequence (Q8NI35 359-469): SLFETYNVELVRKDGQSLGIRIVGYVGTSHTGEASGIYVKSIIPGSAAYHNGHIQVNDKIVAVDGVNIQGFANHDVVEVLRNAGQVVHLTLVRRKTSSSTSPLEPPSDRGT
Assay: holdup assay
Set-up: key: below the threshold = too weak to quantify, mostly under pKd 3.1 to 4
Conditions: plain residues with an end cap or a label only (N-terminal biotin on a linker: ado-ado)

Row | Binder | pKd
33 | ATKDKKITTV [EXOC4, Q96A65] | below the threshold
34 | FHSIKQSTAV [CRHR1, P34998] | below the threshold

Molecular target: GRIP2_6, Q9C0E4
Sequence (Q9C0E4 648-740): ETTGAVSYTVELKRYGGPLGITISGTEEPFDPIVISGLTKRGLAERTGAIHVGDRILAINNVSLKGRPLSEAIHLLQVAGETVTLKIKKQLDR
Assay: holdup assay
Set-up: key: below the threshold = too weak to quantify, mostly under pKd 3.1 to 4
Conditions: plain residues with an end cap or a label only (N-terminal biotin on a linker: ado-ado)

Row | Binder | pKd
35 | ATKDKKITTV [EXOC4, Q96A65] | below the threshold
36 | FHSIKQSTAV [CRHR1, P34998] | below the threshold

Molecular target: T9, SNTB1, Q13884
T9 sequence (Q13884 107-205, limits assumed, looked up): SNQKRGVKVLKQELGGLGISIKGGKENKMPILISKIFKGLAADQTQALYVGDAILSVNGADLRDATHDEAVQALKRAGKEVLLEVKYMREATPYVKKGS
Assay: holdup assay
Set-up: key: below the threshold = too weak to quantify, mostly under pKd 3.1 to 4
Conditions: plain residues with an end cap or a label only (N-terminal biotin on a linker: ado-ado)

Row | Binder | pKd
37 | ATKDKKITTV [EXOC4, Q96A65] | 4.34
38 | FHSIKQSTAV [CRHR1, P34998] | 3.75

Molecular target: GORASP1, Q9BQQ3
Sequence (Q9BQQ3 1-208): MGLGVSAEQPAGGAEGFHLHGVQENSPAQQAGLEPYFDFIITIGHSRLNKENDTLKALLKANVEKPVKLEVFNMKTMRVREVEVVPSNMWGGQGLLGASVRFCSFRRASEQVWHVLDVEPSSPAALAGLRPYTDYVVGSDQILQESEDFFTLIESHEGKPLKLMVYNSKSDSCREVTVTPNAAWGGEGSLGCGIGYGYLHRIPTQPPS
Assay: holdup assay
Set-up: key: below the threshold = too weak to quantify, mostly under pKd 3.1 to 4
Conditions: plain residues with an end cap or a label only (N-terminal biotin on a linker: ado-ado)

Row | Binder | pKd
39 | ATKDKKITTV [EXOC4, Q96A65] | 3.76
40 | FHSIKQSTAV [CRHR1, P34998] | below the threshold

Molecular target: FRMPD2_2, Q68DX3
Sequence (Q68DX3 944-1038): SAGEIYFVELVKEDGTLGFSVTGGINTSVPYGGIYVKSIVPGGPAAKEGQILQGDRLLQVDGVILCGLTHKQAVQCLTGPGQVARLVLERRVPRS
Assay: holdup assay
Set-up: key: below the threshold = too weak to quantify, mostly under pKd 3.1 to 4
Conditions: plain residues with an end cap or a label only (N-terminal biotin on a linker: ado-ado)

Row | Binder | pKd
41 | ATKDKKITTV [EXOC4, Q96A65] | below the threshold
42 | FHSIKQSTAV [CRHR1, P34998] | 3.7

Molecular target: NHERF4_1, Q86UT5-2
Sequence (Q86UT5 other isoform, or with tags, fused parts or gaps): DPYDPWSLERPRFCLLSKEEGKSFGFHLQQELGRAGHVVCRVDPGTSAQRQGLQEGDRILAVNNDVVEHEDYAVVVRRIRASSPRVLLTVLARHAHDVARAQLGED
Assay: holdup assay
Set-up: key: below the threshold = too weak to quantify, mostly under pKd 3.1 to 4
Conditions: plain residues with an end cap or a label only (N-terminal biotin on a linker: ado-ado)

Row | Binder | pKd
43 | ATKDKKITTV [EXOC4, Q96A65] | 3.64
44 | FHSIKQSTAV [CRHR1, P34998] | 3.81

Molecular target: TJP1_2, Q07157
Sequence (Q07157 181-274): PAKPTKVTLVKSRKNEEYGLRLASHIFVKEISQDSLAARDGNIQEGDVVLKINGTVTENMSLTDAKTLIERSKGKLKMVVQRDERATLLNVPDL
Assay: holdup assay
Set-up: key: below the threshold = too weak to quantify, mostly under pKd 3.1 to 4
Conditions: plain residues with an end cap or a label only (N-terminal biotin on a linker: ado-ado)

Row | Binder | pKd
45 | ATKDKKITTV [EXOC4, Q96A65] | 3.73
46 | FHSIKQSTAV [CRHR1, P34998] | below the threshold

Molecular target: T10, MPDZ_5, O75970
T10 sequence (O75970 695-796, limits assumed, looked up): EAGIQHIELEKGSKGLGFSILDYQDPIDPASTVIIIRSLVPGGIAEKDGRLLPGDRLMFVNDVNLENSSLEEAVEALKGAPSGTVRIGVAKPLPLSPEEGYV
Assay: holdup assay
Set-up: key: below the threshold = too weak to quantify, mostly under pKd 3.1 to 4
Conditions: plain residues with an end cap or a label only (N-terminal biotin on a linker: ado-ado)

Row | Binder | pKd
47 | ATKDKKITTV [EXOC4, Q96A65] | below the threshold
48 | FHSIKQSTAV [CRHR1, P34998] | below the threshold

Molecular target: Inadl_1, Q8NI35
Sequence (Q8NI35 113-229): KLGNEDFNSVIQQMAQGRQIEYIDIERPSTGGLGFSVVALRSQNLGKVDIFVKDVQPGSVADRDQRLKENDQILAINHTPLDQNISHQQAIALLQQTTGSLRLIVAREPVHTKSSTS
Assay: holdup assay
Set-up: key: below the threshold = too weak to quantify, mostly under pKd 3.1 to 4
Conditions: plain residues with an end cap or a label only (N-terminal biotin on a linker: ado-ado)

Row | Binder | pKd
49 | ATKDKKITTV [EXOC4, Q96A65] | below the threshold
50 | FHSIKQSTAV [CRHR1, P34998] | below the threshold

Molecular target: NHERF4_4, Q86UT5
Sequence (Q86UT5 464-550): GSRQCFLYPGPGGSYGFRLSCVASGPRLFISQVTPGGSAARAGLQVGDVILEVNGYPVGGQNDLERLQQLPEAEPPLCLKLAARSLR
Assay: holdup assay
Set-up: key: below the threshold = too weak to quantify, mostly under pKd 3.1 to 4
Conditions: plain residues with an end cap or a label only (N-terminal biotin on a linker: ado-ado)

Row | Binder | pKd
51 | ATKDKKITTV [EXOC4, Q96A65] | 3.99
52 | FHSIKQSTAV [CRHR1, P34998] | 3.88

Molecular target: T11, LRRC7, Q96NW7
T11 sequence (Q96NW7 1440-1537, limits assumed, looked up): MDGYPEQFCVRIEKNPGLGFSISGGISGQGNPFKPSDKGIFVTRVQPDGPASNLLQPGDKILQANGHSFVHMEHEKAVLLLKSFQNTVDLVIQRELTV
Assay: holdup assay
Set-up: key: below the threshold = too weak to quantify, mostly under pKd 3.1 to 4
Conditions: plain residues with an end cap or a label only (N-terminal biotin on a linker: ado-ado)

Row | Binder | pKd
53 | ATKDKKITTV [EXOC4, Q96A65] | 3.48
54 | FHSIKQSTAV [CRHR1, P34998] | 3.49
